Experimental data reported in patent publication US5981483A, “Compositions comprising modulators of cytokines of the TGF-β superfamily” (Mount Sinai Hospital Corporation, priority 1997, dated 1999).

Legend:
[1] = target: T1, TGF-β1 (Homo sapiens, UniProt P01137); assay: 3H-Thymidine incorporation in Mv1Lu cells: neutralization of the antiproliferative activity of TGF-β1; assay type: cell-based
T1 construct: The mature processed cytokines produced from the members of the gene family show almost 100% amino acid identity between species; purchased Collaborative Research (Bedford, Mass.)
T1 sequence (P01137 279-390 limits assumed): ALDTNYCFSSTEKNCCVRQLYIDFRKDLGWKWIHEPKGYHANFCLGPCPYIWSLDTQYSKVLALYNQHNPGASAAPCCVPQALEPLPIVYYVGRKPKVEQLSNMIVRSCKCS
Procedure: Mv1Lu cells were seeded at 20,000 cells/well in a 96 well plate containing 0.2% FCS in α-MEM and incubated with the indicated concentrations of proteins for 18 hr. The cells were then pulsed with 8 μCi/ml methyl-^3 H-thymidine (NEN, Boston, Mass.) for 6 hr. Cells were trypsinized, harvested onto filtermats and counted in a β-Counter. Percent neutralization is defined as incorporation in the presence of 12 pM TGF-β1 alone set at 0%, and incorporation without additions as 100%. The difference in ^3 H-thymidine incorporation between 0% and 100% was 7.5 fold. Each point in FIG. 1 and FIG. 12 represents the mean of duplicate determinations, and the results are representative of three experiments. […] Before use, bovine thyroglobulin was spun twice in a centricon (M.W. cutoff of 10,000 Da) micro-concentrator (Amicon, Beverly, Mass.) to remove any excess Iodine and T3/T4 thyroid hormones.

[2] = target: T2, TGF-β2 (Homo sapiens, UniProt P61812); assay: BIAcore surface plasmon resonance, binding to immobilized TGF-β2; details: ligand TGF-β2
T2 construct: The mature processed cytokines produced from the members of the gene family show almost 100% amino acid identity between species
T2 sequence (P61812 303-414 limits assumed): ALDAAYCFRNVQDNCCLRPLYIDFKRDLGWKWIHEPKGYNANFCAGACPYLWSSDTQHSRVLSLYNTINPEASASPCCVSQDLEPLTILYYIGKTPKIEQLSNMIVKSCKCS
Procedure: (§1) In this system, a purified protein serving as the ligand is covalently coupled to a carboxymethylated dextran surface, and binding molecules (i.e. the analyte) are passed in a fluid phase across the surface. Binding of the analyte to ligand causes a change in reflected light which is directly proportional to mass bound, and is measured in arbitrary response units (R.U.). Analyte-ligand binding is observed as both increasing response with time during the injection of analyte, and the difference in the position of the baseline before and after injection.
(§2) Schuster, R. V. Swanson, L. A. Alex, R. B. Bourret, M. I. Simon, Nature 365, 343 (1993). 1000 R.U. equals approximately 1 ng/mm^2. The running buffer was 20 mM Hepes (pH 7.2), 150 mM NaCl and the flow rate for all sensorgrams was 3 μl/min.
(§3) Regeneration of the surface to remove bound analyte was done by injection of 10 μl of 20 mM NaOH. To cyclize TRH1 peptides, the material was reduced with 5 mM DTT then brought to a final concentration of 60 μM in 25 mM ammonium acetate (pH 8.5). After stirring in the dark for 30 min at 20° C. with 30 mM potassium ferricyanide, the peptide was mixed with AG3-X4A resin (BioRad), filtered, lyophilization and desalted on a 50×2.5 cm column of Biogel P2 (Pharmacia) developed in water, and further purified by reverse phase HPLC.
Data was analyzed using the BIA-evaluation software (Pharmacia Biosensor). The association rate constant, kass, was calculated by first plotting the change in response with time versus response (i.e. dR/dT vs R). When the slope of the line from this graph is plotted versus analyte concentration (i.e d(dR/dT)/dR vs C), kass is obtained from the slope of the line. The dissociation rate constant, kdiss, is obtained during the decrease in response with time after analyte injection is discontinued. Specifically, kdiss was obtained from the slope of the line in a plot of ln(Rt1 /Rtn) vs time. The affinity constants were calculated from KD =kdiss /kass. […]

[3] = target: T3, BMP-6 (Homo sapiens, UniProt P22004); assay: BIAcore surface plasmon resonance, binding to immobilized BMP-6; details: Table 1; ligand BMP-6
T3 sequence (P22004 375-513): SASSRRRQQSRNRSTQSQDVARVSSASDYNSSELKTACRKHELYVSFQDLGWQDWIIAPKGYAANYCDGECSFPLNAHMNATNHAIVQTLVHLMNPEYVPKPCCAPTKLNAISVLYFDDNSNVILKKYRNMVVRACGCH
Procedure: as §1, §2
(§4) Regeneration of the surface to remove bound analyte was done by injection of 10 μl of 20 mM NaOH. To cyclize TRH1 peptides, the material was reduced with 5 mM DTT then brought to a final concentration of 60 μM in 25 mM ammonium acetate (pH 8.5). […]
(§5) Data was analyzed using the BIA-evaluation software (Pharmacia Biosensor). The association rate constant, kass, was calculated by first plotting the change in response with time versus response (i.e. dR/dT vs R). […] The affinity constants were calculated from KD =kdiss /kass. […]

[4] = target: T1, TGF-β1; assay: BIAcore surface plasmon resonance, binding to immobilized TGF-β1; details: ligand TGF-β1
Procedure: as §1, §2, §3
Injection volumes were 36 μl for FIG. 2, 4 and 5 and 45 μl for FIG. 3. […] Protein concentrations in each experiment were (FIGS. 2 and 3), 2, 5, 10, 20, 30, 40 μM; (FIG. 4), 0.21, 0.31, 0.41, 0.62, 0.82, 1.24 μM; (FIG. 5), 0.22, 0.29, 0.44, 0.59, 0.88 μM. R.U. for the immobilized cytokine in each experiment was 2850 R.U. for FIGS. 2 and 3; 7450 R.U. for FIG. 4, and 5300 R.U., for FIG. 5 respectively.
Data was analyzed using the BIA-evaluation software (Pharmacia Biosensor). The association rate constant, kass, was calculated by first plotting the change in response with time versus response (i.e. dR/dT vs R). When the slope of the line from this graph is plotted versus analyte concentration (i.e d(dR/dT)/dR vs C), kass is obtained from the slope of the line. The dissociation rate constant, kdiss, is obtained during the decrease in response with time after analyte injection is discontinued. Specifically, kdiss was obtained from the slope of the line in a plot of ln(Rt1 /Rtn) vs time. The affinity constants were calculated from KD =kdiss /kass. Variance for kass is standard error of the linear regression plot, and for kdiss values are the mean ± range of 3 or more independent injections.

[5] = target: T4, TGF-β1 binding to TβRII (Homo sapiens, UniProt P01137); assay: Competition of TGF-β1 binding to immobilized TβRII (Quantikine ELISA); details: 40 pM TGF-β1; fetuin 40 μM, TRH1 peptide from TβRII 20 μM; FIG. 14
T4 construct: The mature processed cytokines produced from the members of the gene family show almost 100% amino acid identity between species; purchased R&D Systems
T4 sequence (P01137 279-390 limits assumed): as the sequence (P01137 279-390 limits assumed) above
Procedure: Inhibition of TGF-β1 binding to TβRII was carried out using the Quantikine ELISA kit (R&D Systems). In particular, 96 well plates were pre-coated with the extracellular domain of TβRII. […] This was followed by a 5 minute incubation with the TβRII coated ELISA wells with shaking, washing as recommended, and a 1 hr incubation with the polyclonal anti-TGF-β1 antibody. Plates were developed as per the instructions, and determinations were made in triplicate.

[6] = target: T5, BMP-4 (Homo sapiens, UniProt P12644); assay: BIAcore surface plasmon resonance, binding to immobilized BMP-4; details: Table 2 (calculations repeated); ligand BMP-4; KD = kdiss/kass
T5 sequence (P12644 293-408): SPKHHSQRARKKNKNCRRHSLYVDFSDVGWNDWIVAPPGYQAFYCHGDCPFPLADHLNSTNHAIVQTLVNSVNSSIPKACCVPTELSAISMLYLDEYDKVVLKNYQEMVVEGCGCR
Procedure: as §1, §2, §4, §5

[7] = Table 2 (calculations repeated)

## Fetuin: Bovine fetal fetuin, glycoprotein obtained by ammonium sulfate fractionation of FCS and gel filtration (Sigma)
[1]; 12 pM TGF-β1, FIG. 1
  Maximal effect, percent neutralization: approximately 150%
[1]; 18 pM human TGF-β1, FIG. 12, read-out: IC50, blocking of anti-proliferative activity of exogenously-added TGF-β1
  IC50: ~3000 nM
[2]; Table 1
  kass: 550 ± 120 M⁻¹ s⁻¹
[2]; [7]
  kass: 550 ± 120 M⁻¹ s⁻¹
[3]
  kass: 2900 ± 500 M⁻¹ s⁻¹
[4]; Table 1
  kass: 670 ± 400 M⁻¹ s⁻¹
[4]; Table 1, listed as fetuin
  kass: 670 M⁻¹ s⁻¹
  kdiss: 0.16 s⁻¹
[4]; [7]
  kass: 870 ± 270 M⁻¹ s⁻¹
  kdiss: 0.0019 s⁻¹
[4]; Table 2 (calculations repeated), KD = kdiss/kass, listed as b-Fetuin
  Kd: 2200 nM
[5]
  inhibition of TGF-β1 binding to immobilized recombinant TβRII: competitive inhibitors
[6]
  Kd: 120 nM
